Source: IntAct's records for PubMed 31254514

B1: Beta-crystallin A4 (Homo sapiens), P53673 (parent)
chain: MTLQCTKSAGPWKMVVWDEDGFQGRRHEFTAECPSVLELGFETVRSLKVLSGAWVGFEHAGFQGQQYILERGEYPSWDAWGGNTAYPAERLTSFRPAACANHRDSRLTIFEQENFLGKKGELSDDYPSLQAMGWEGNEVGSFHVHSGAWVCSQFPGYRGFQYVLECDHHSGDYKHFREWGSHAPTFQVQSIRRIQQ
partner: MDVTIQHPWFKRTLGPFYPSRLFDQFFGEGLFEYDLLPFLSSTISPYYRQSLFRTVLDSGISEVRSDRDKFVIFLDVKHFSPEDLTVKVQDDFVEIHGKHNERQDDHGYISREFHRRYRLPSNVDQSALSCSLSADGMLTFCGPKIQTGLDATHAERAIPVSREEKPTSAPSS
B2: Beta-crystallin A4 (Homo sapiens), P53673 (parent)
chain: B1 chain
partner: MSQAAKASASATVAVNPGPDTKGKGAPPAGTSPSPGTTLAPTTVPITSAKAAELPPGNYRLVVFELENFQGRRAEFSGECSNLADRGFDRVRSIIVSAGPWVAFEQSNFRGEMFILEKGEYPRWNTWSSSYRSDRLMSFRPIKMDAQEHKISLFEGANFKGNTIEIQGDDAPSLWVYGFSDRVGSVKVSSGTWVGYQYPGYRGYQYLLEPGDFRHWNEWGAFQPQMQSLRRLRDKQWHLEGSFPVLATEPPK

Variants of: B1
Settings: with cryaa_human CRYAA

| Variant | effect of a mutation on the interaction |
| --- | --- |
| G64W | increasing interaction strength |

Variants of: B2
Settings: with crbb1_human CRYBB1, P53674

| Variant | effect of a mutation on the interaction |
| --- | --- |
| G64W | disrupting interaction strength |
